# Assay: yeast display, Sf9 membrane polyspecificity reagent, FACS + sequencing; frameworks hold sequencing errors
# Method in brief: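 Galactose induction of a Saccharomyces cerevisiae BJ5465 synthetic nanobody display library ran 36–48 hours. The cells were then stained for 1 hour at 4 °C with 10% biotinylated, detergent-solubilized Sf9 membrane reagent, pulled down on streptavidin microbeads and FACS-sorted into low and high (top ~1%) gates on expression and reagent-binding fluorescence. Labels for polyreactivity follow the gate of origin.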
row,Sequence,polyreactivity (PSR sort gate)
1,QVQLVESGGGLVQAGGSLRLSCAASGSTFGFYAMGWYRQAPGKERELVAAISSAARTYYADSVKGRFTISRDNAKNTVYLQMNSLKPEDTAVYYCSAEAYHWTSYIGYGGVYYWGQGTQVTVSS,low polyreactivity
2,QVQLVESGGGLVQAGGSLRLSCAASGSTFTDYAMGWYRQAPGKERELVAAIRFSGGSTYYADSVKGRFTISRDNAKNTVYLQMNSLKPEDTAVYYCAAGGYPWLDSWGQGTQVTVSS,low polyreactivity
3,QVQLVESGGGLVQAGASLRLSCAASGRIFSFYAMGWYRQAPGKERELVAAISSGGNTYYADSVKGRFTISRDNAKNTVYLQMNSLKPEDTAVYYCATGYRKLSSRYGYWGQGTQVTVSS,high polyreactivity
4,QVQLVESGGGLDQAGGSLRLSCAASGSIISGYAMGWYRQAPGKERELVAAISSSGGRTYYADSVKGRFTISRDNAKNTVYLQMNSLKPEDTAVYYCNARQFSRYDYNYWGQGTQETVSS,high polyreactivity
5,QVQLVESGGGLVQAGGSLRLSSAASGITFLTNAMGWYRQAPGKERELVAAISGRGTRTYYADSVKGRFTISRDNAKKTVFLQMNRLKPEDTAVYYCAAVRRPVHYPYDYWGQGNQVTVSS,high polyreactivity
6,QVQLVESGGGLVQAGGSLRLSCAASGFTFYRYAMGWYRQAPGKERELVAAISTSGVSTYYADSVKGRFTISRDNAKNTVYLQMNSLKPEDTAVYYCAKAGWRGSYIYYRFRVGYDSWGQGTQVTVSS,high polyreactivity
7,QVQLVESGGGLVQAGGSLRLSCAASGRTFASYAMGWYRQAPGKERELVATIRSGDSTNYADSVKGRFTISRDNAKHTVYLQMNSLKPEDTAVYYCAADRDIFQQGANGAPYDYRGQGTQVTVSS,low polyreactivity
8,QVQLVESGGGLVQAGGSLRLSCAASGNTFDRYAMGWYRQAPGKERELVAAITRSGGNTYYADSVKGRFTISRDNAKNTVYLQMNSLKPEDTAVYYCAAYFFPYYTGYGYWGQGTQVTVSS,high polyreactivity
9,QVQLVESGGGLVQAGGSLRLSCAASGFIFNRNAMGWYRQAPGKEREFVAAISTRGAGTYYADSVKGRFTISRDNAKNTVYLQMNSLKPEDTAVYYCAADKFRYGYYNRYSKVGYDYWGQGTQVTVSS,high polyreactivity
10,QVQLVESGGGLVQAGGSLRLSCAASGFTFVPYARGWYRQAPGKDREWVAAISRRGGSTYYADSVKGRFTISRDYAKNTVYLQMNSLKPEDTAVYYCAKDGPGGGTRIYDYWGQGTQVTVSS,high polyreactivity
11,QVQLVESGGGLVQAGGSLRLSCAASGSTFGYYAMGWYRQAPGKERELVATITIGGSTHYADSVKGRFTISRDNAKNTVYLQMNSLKPEDTAVYYCAARYAYYTARYTQVKGLDYWGQGTQVTVSS,high polyreactivity
12,QVQLVESGGGLVQAGGSLRLSCAASGRIFDLNAMGWYRQAPGKERELVAAITNTGSTNYADSVKGRFTISRDNAKNTVYLQMNSLKPEDTAVYYCARTYWLRYSGYRDDEYDYWGQGTQVTVSS,low polyreactivity
13,QVQHVESGGGLVQAGGSLRLSCAASGSIFYTYPMGWNRQAPGKERELVAAISFSDGDTYYADSVKGRFTISRDNAKNTVYLQMIRLKPVDTAVYYCNDYVYLPNYPYDYWGQGTHVTVSS,low polyreactivity
14,QDQLVESGGGLVQAGGSLRLSCAASGRIFNANTMGWYRQAPGKERELVARITWSGGGTYYADSVKGRFTISRDNAKNTVYLQMNCLKPEDTAVYYCAARLLIRYYYWGHGTQVTVSS,high polyreactivity
15,QVQLVESGGGLVQAGGSLRLSCAASGLTIQRNDMGWYRQAPGKEREFVATITSNAGSTYYADSVKGRFTISRDNAKNTVYLQMNSLKPEDTAVYYCARERWWGDGYWGQGTQVTVSS,high polyreactivity
16,QVQLVESGGGLVQAGGSLRLSCAASGSIFYYAMGWYRQATGKERELVAAITTGDGTNYADSVKGRFTISRDNAKNTVYLQMNSLKPEDTAVYYCAKSTYKPYYYYFPYDYWGQGTQVTVSS,low polyreactivity
17,QVQLVESGGGLVQAGGSLRLSCAASGRTFPYYDKGWYRQAPGKERELVATISWSGGTTYADSVKGRFTISRDNAKNTVYLQMNSLKPEDTAVYFCAAVSYVYRYYWGQGTQVTVSS,low polyreactivity
18,QVQLVESGGGLVQAGGSLRLSCAASGRTLRRYAMGSYREAPGKERELVATISGRGGSTYYADSVMGRFTISRDNAKNTVYLQMNSLKPEYTAVYYCNRVTSRVSGRYSYDYWGQGTQVTVSS,high polyreactivity
19,QVQLVESWEGLVQAGGRLRLSCAASGSIFRPYTMGWYRQAPGKERELVATISSTGITNYADSVKGRFTISRDNAKITVYLQMNSLKPEVTAVYYCAAGLWFSYDYWGQGTQVTVSS,high polyreactivity
20,QVQHVESAAGLVQAGGSLRLSCAASGRIFYATVMGWYRQAHGKVREFVAAIRWSGSTYYADSVKGRFTISRDNAKNTVYLQMNSLKRVDTAVYYCADEGSRWYYFFYVGGGYWGQGTQVTVSS,low polyreactivity
21,QVQLVESGGGLVQAGGSLRLSCAASGNIFDIYAMGWYRPAPGTERELVAAISSGGSTYYADSVKGRFTISRDNAKNTVYLQMNSLKPEDTAVYYCAESRVGYYRYEYWGQGTQVTVSS,low polyreactivity
22,QVQLVESGGGLVQAGGSLRLSCAASGSIFYGYDMGWYRQAPGKERELVAAISRSGGSTYYADSVKGRFTISRDNAKNTVYLQMNSLKPEDTAVSYCNAYPVTFVYYVGDGYWGQGTQVTVSS,high polyreactivity

row,Sequence,polyreactivity (PSR sort gate)
1,QVQHVESGGGLVQAGGSLRLSCAASGRIFDSYAMGWYRQAPGKERELVATISWDSASTYYADTVKGRFTISRDNAKNTVYLQMNCLNPEDTAVYYCAAGGSSSWAFNYWGQGTQVTVSS,low polyreactivity
2,QVQLVESGGGLVQAGGSLRLSCAASGRIFVKYAMGWYRQAPGKERELVAAISKSGGSTYYADSVKGRFTISRDNAKNTVYLQMNSLKPEDTAVYYCATRSREQYSVSYRLDYWGQGTQVTVSS,low polyreactivity
3,QVQLVDTGGGLVQAGGSLRLICAASGSIFKIYAMGWYRQAPGKERELVAAISSSGGSTYYADSVKGRFTISRDNAKNTVYLQMNCLKPEDTAVYYCAAGQSWRKNAYRYDYWGQGTQVTVSS,high polyreactivity
4,QVQLVESGGGLVQAGGSLRLSCAASGSIFRPYAMGWYRPAPGKERELVAAITSGGRTNYADSVKGRFTISRDNAKNTVYLQMNSLKPEDTAVYYCAKTGSYAKIRPNNDYWGQGTQVTVSS,low polyreactivity
5,QVQLVESGGGLVQAGGSLRLSCAASGFTFPAYVMRWYRQAPGKERELVAAISKSGGSTYYADSVKGRFTISRDNAKNTVYLQMNCLKPEDTAVYYCAKYWVTRRFQYDYWGQGTQVTVSS,high polyreactivity
6,QVQVVESGGGLVQAGGSLRLSCAASGSTFKKYAMGWYRQAPGKERELVAAISWSGGSTYYADSVKGRFTISRDNAKNTVYLQMNSLKPEDTAVYYCAAYPYTYYLDRYEYWGQGTQVTVSS,high polyreactivity
7,QVQLVESWGGLVQAGGSLRLSCADSGSTFNVNAMGWYSQAPGKESELVATITESGGRTYYADSVKGRFTISRDYAKNNVYLQMNSLKPEDTAVYYCARGDAWTFDYEPYDYWGQGTQVTVSS,low polyreactivity
8,QVQLVESGGGLVQAGGSLRLSCDASGSILRYYAMGWYRQAPGKERELVADISTSGGSTYYADSVKGRFTISRDNAKNTVYLQMNSLKPEDTAVYYCAKPWYSSGFDYWGQGTQVTVSS,high polyreactivity
9,QVQIVESGGGLVQAGGSLRLSCAASGRIFDYYAMGWYRQAPGKERELVADITSGGSTYYADSVKGRFTISRDNAKNTVYLQMNSLKPEDTAVYYCNADGPGSYIWYYFVYTTPEYDYWGQGTQVTVSS,low polyreactivity
10,QVQLVESGGGLVQAGGSLRLSCAASGRIFVGYAMGWYRQATGKERELVAAISARGGSTYYADSVKGRCTISRDNAKNTVYIQMNSLKPEDTAVYYCAADEASSRGYYDYDYWGQGTQVTVSS,low polyreactivity
11,QVQLVESGGGLVQAGGSLRLSCAASGSIFQYYAMGWYRQPPGKEREFVAAITSDGSSTYYADSVKGRFTISRDNAKNTVYLQMNSLKPEDTAVYDCAAGWVGDRRPSMYYWGQGTQVTVSS,high polyreactivity
12,QVQLVESGGGLVQAGGSLRLSCAASGFTFPYYAQGWYRQAPGKETELVATISTGSGVSTYDADSVKGRFTISRDNAKNTVYLQMNSLKPEDTAVYYCAAVFGWRRYVTYDYWGQGTQVTVSS,low polyreactivity
13,QVQLVESGGGLVQAGGSLRLSSAASGSIFWVYAMGWYRQAPGKERELVAAISNRGGSTYYADSVKGRFTISRDNAKNTVYLQMNSLKPEDTAVYYCAAVVAHHYYWGQGTQVTVSS,high polyreactivity
14,QVQLVESGGGLVQAGGSLRLSCAASGSIFTFNSMGWYRQSPGKERELVAAIRWSSGRTYYADSVKGRFTISRDNAKNTVYLQMNSLKPEETAVYYCAAKDFGSFYDSGYDYWGQGTQVTVSS,high polyreactivity
15,QVQLVESGGGLVQAGGSLRLSCAASGSIFAHYTMGSYRQAPGKEREFVAAITKSGGRTYYADSVKGRFTISRDNAKNTVYLQMNSLKPEDTAVYYCARRRTIPYTLVDYDSWGQGTQVTVSS,low polyreactivity
16,QVQLVESGGGLVQAGGSLRLSCAASGSTSPIYAMGWYRQAPGKERELVAAINGVGSTNYADSVKGRFTISRDNAKNTVYLQMNSLKPEDTAVYYCNTRYSPGYQGTEVDYWGKGTQVTVSS,low polyreactivity
17,QVQLVESGGGLVQAGGSLRLSCAASGFIFVRYAMGWYRPAPGKERELVAVITSGGSTYYADSVKGRFTISRDNAKNTVYLQMNSLKPEDTAVYYCAAQSKRYVRSYSWYDYWGQGTQVTVSS,high polyreactivity
18,QVQLVESGVGLVQAGGSLRLSCAASGSTFWLYAMGWYRQAPGKERELVASISSRGGSTYYADSVKGRFTISRDNAKNTVYLQMNSLKPEDTAVYYCAAKDIRYDDDYWGQGTQVTVSS,low polyreactivity
19,QVQLVESGGGLVQAGGSLRFSCAASGGIFFRNAMVWYRQAPGKEREFVAVISSGGSTYYADSVKGRFTISRDNAKNTVYLQMNSLKPEDTAVYYCAARRKRPGYTVTLHYPYNYWGQGTQVTVSS,high polyreactivity
20,QVQLVESGGGLVQAGGSLRLSCAASGRTFIYYAMGWYRPAPGKERELVAAITWTGGRTYYADSVKGRFTISRDNAKNTVYLQMNSLKPEDTAVYYWAASDRYGGRDYWGQGTQVTVSS,high polyreactivity
21,QVQLVESGGGLVQAGGSLRLSCAASGITFGDNTMGWYRQAPGKERELVAAITYSSTSTYYADSVKGRFTISRDNPKNTVYLQMNSLKPEDTAVYYCAAEGPVDVVSTDYDYWGQGTQVTVSS,low polyreactivity

# — the nanobody polyreactivity screen of Harvey et al. (2022)
